Test results taken from the supplement of paper PMC7877785.
± gives the uncertainty stated by the source.

Experiment: self-splicing fitness, log relative to wild type (ln ratio); higher = more splicing; Tetrahymena group I intron in knt gene, E. coli kanamycin selection, DiMSum; sequences stand for … in CUCUCU…GGAGGGAAAAGUUAUCAGGCAUGCACCUGGUAGCUAGUCUUUAAACCAAUAGAUUGCAUCGGUUUAAAAGGCAAGACCGUCAAAUUGCGGGAAAGGGGUCAACAGCCGUUCAGUACCAAGUCUCAGGGGAAACUUUGAGAUGGCCUUGCAAAGGGUAUGGUAAUAAGCUGACGGACAUGGUCCUAACCACGCAGCCAAGUCCUAAGUCAACAGAUCUUCUGUUGAUAUGGAUGCAGUUCACAGACUAAAUGUCGGUCGGGGAAGAUGUAUUCUUCUCAUAAGAUAUAGUCGGACCUCUCCUUAAUGGGAGCUAGCGGAUGAAGUGAUGCAACACUGGAGCCGCUGGGAACUAAUUUGUAUGCGAAAGUAUAUUGAUUAGUUUUGGAGUACUCGUGGUCG
Method in brief: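 Library with all eight P1ex-region intron nucleotides randomised, intron inside the knt kanamycin-resistance gene on pET-22b(+), in E. coli BL21(DE3). Cells grew overnight at 37°C or 30°C on LB agar with or without 25 μg/mL kanamycin (plus 100 μg/mL carbenicillin, 50 μM IPTG, 0.2% rhamnose), in six replicate transformations. Pooled colonies were amplicon-sequenced on Illumina HiSeq 2500. DiMSum fitness is the error-weighted combination of wild-type-normalised replicate fold changes, kanamycin versus none.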

Sequence: AUUGAGCAAUAUUACGUGGU
- self-splicing fitness (ln) (30 °C): -3.28 ± 0.21
- self-splicing fitness (ln) (37 °C): -3.12 ± 0.43

Sequence: AGGCAGCAAUAUUACGGGGU
- self-splicing fitness (ln) (30 °C): -3.54 ± 0.21
- self-splicing fitness (ln) (37 °C): -3.25 ± 0.37

Sequence: GGGGAGCAAUAUUACGUAAG
- self-splicing fitness (ln) (30 °C): -2.56 ± 0.21
- self-splicing fitness (ln) (37 °C): -1.01 ± 0.24

Sequence: UGCGAGCAAUAUUACGCUCG
- self-splicing fitness (ln) (30 °C): -2.91 ± 0.22
- self-splicing fitness (ln) (37 °C): -1.92 ± 0.23

Sequence: CUCGAGCAAUAUUACGGUUC
- self-splicing fitness (ln) (30 °C): -3.14 ± 0.22
- self-splicing fitness (ln) (37 °C): -2.49 ± 0.3

Sequence: UUAGAGCAAUAUUACGGUUG
- self-splicing fitness (ln) (30 °C): -1.98 ± 0.15
- self-splicing fitness (ln) (37 °C): -1.16 ± 0.15

Sequence: UGUGAGCAAUAUUACGAACC
- self-splicing fitness (ln) (30 °C): -2.06 ± 0.24
- self-splicing fitness (ln) (37 °C): -0.336 ± 0.27

Sequence: GUAGAGCAAUAUUACGAUUU
- self-splicing fitness (ln) (30 °C): -1.13 ± 0.12
- self-splicing fitness (ln) (37 °C): -0.037 ± 0.21

Sequence: ACAGAGCAAUAUUACGUCUG
- self-splicing fitness (ln) (30 °C): -2.35 ± 0.18
- self-splicing fitness (ln) (37 °C): -1.03 ± 0.21

Sequence: GUUGAGCAAUAUUACGCAAA
- self-splicing fitness (ln) (30 °C): -2.73 ± 0.35
- self-splicing fitness (ln) (37 °C): -0.984 ± 0.14

Sequence: UCACAGCAAUAUUACGUUAG
- self-splicing fitness (ln) (30 °C): -2.17 ± 0.077
- self-splicing fitness (ln) (37 °C): -1.49 ± 0.088

Sequence: CCUAAGCAAUAUUACGGAUG
- self-splicing fitness (ln) (30 °C): -2.08 ± 0.082
- self-splicing fitness (ln) (37 °C): -1.16 ± 0.085

Sequence: AGAUAGCAAUAUUACGGGAA
- self-splicing fitness (ln) (30 °C): -3 ± 0.27
- self-splicing fitness (ln) (37 °C): -2.7 ± 0.25

Sequence: UCGGAGCAAUAUUACGUUUC
- self-splicing fitness (ln) (37 °C): -2.02 ± 0.43

Sequence: CCUUAGCAAUAUUACGGUGA
- self-splicing fitness (ln) (30 °C): -3.63 ± 0.35
- self-splicing fitness (ln) (37 °C): -2.91 ± 0.27

Sequence: CUCAAGCAAUAUUACGCGAU
- self-splicing fitness (ln) (30 °C): -2.3 ± 0.11
- self-splicing fitness (ln) (37 °C): -0.996 ± 0.11

Sequence: GCGGAGCAAUAUUACGUCAG
- self-splicing fitness (ln) (30 °C): -3.19 ± 0.31
- self-splicing fitness (ln) (37 °C): -2.38 ± 0.35

Sequence: UCGUAGCAAUAUUACGCGCA
- self-splicing fitness (ln) (30 °C): -0.601 ± 0.11
- self-splicing fitness (ln) (37 °C): -0.0623 ± 0.15

Sequence: AUCCAGCAAUAUUACGUUCC
- self-splicing fitness (ln) (30 °C): -1.19 ± 0.13
- self-splicing fitness (ln) (37 °C): -0.575 ± 0.25

Sequence: ACUGAGCAAUAUUACGUAGC
- self-splicing fitness (ln) (30 °C): -3.07 ± 0.12
- self-splicing fitness (ln) (37 °C): -1.66 ± 0.13

Sequence: UCCUAGCAAUAUUACGAUCA
- self-splicing fitness (ln) (30 °C): -2.01 ± 0.1
- self-splicing fitness (ln) (37 °C): -1.36 ± 0.096

Sequence: GAGAAGCAAUAUUACGAGGU
- self-splicing fitness (ln) (30 °C): -3.47 ± 0.33
- self-splicing fitness (ln) (37 °C): -3.9 ± 0.46

Sequence: CCUUAGCAAUAUUACGUGAC
- self-splicing fitness (ln) (30 °C): -3.61 ± 0.28
- self-splicing fitness (ln) (37 °C): -2.68 ± 0.28

Sequence: UAUCAGCAAUAUUACGGACA
- self-splicing fitness (ln) (30 °C): 0.27 ± 0.15
- self-splicing fitness (ln) (37 °C): -0.681 ± 0.17

Sequence: GUUUAGCAAUAUUACGCCCG
- self-splicing fitness (ln) (30 °C): -3.02 ± 0.24
- self-splicing fitness (ln) (37 °C): -1.18 ± 0.24

Sequence: GGGAAGCAAUAUUACGCACU
- self-splicing fitness (ln) (30 °C): -1.78 ± 0.21
- self-splicing fitness (ln) (37 °C): -1.94 ± 0.2

Sequence: UAGGAGCAAUAUUACGUAAU
- self-splicing fitness (ln) (30 °C): -3.15 ± 0.34

Sequence: AGAAAGCAAUAUUACGAAGU
- self-splicing fitness (ln) (30 °C): -3.61 ± 0.27
- self-splicing fitness (ln) (37 °C): -2.15 ± 0.21

Sequence: AGUGAGCAAUAUUACGAGGC
- self-splicing fitness (ln) (30 °C): -3.83 ± 0.33
- self-splicing fitness (ln) (37 °C): -1.45 ± 0.17

Sequence: GCGCAGCAAUAUUACGGUAC
- self-splicing fitness (ln) (30 °C): -1.22 ± 0.082
- self-splicing fitness (ln) (37 °C): 0.195 ± 0.095

Sequence: CCCUAGCAAUAUUACGAGGG
- self-splicing fitness (ln) (30 °C): -4.35 ± 0.46
- self-splicing fitness (ln) (37 °C): -2.09 ± 0.23
